The values that follow come from patent US20250361296A1 (BIOCYTOGEN PHARMACEUTICALS BEIJING, published 2025).

The chains are these.
B1: anti-SIGLEC15 antibody 10C9 (antibody, human IgG1, V domains shown)
VH: QVQLVQSGAEVKKPGATVKVSCKASGYTFTNYGFSWVRQAPGQGLEWMGWINTYNDNTNYAQKFQGRVTMTTDTSTSTAYMELRSLRSDDTAVYYCARDGLWFGELPHYFDYWGQGTLVTVSS
VL: DIQLTQSPLSSPVTLGQPASISCRSSQSLVNSDGETFLSWLQQRPGQPPRLLIYKISNRFSGVPDRFSGSGAGTDFTLKISRVEAEDVGVYYCMQATQFPHTFGQGTKLEIK
B2: anti-SIGLEC15 antibody 10A7 (antibody, human IgG1, V domains shown)
VH: EVQLVQSGGGLVQPGGSLRLSCAASGFTFSNYEMNWVRQAPGKGLEWISYISNSGSTIYYADSVKGRFTISRDDAKNSLYLQMNSLRAEDTAVYYCAREDYDSSGYYWFDPWGQGTPVTVSS
VL: DIQLTQSPSSVSASVGDRVTITCRASQGISSWLAWYQQKPGKAPKLLIYAASSLQSGVPSRFSGSGSGTDFTLTINSLQPEDFATYYCQQTNSFPLTFGGGTKVEIK
B3: anti-SIGLEC15 antibody 23F4 (antibody, human IgG1, V domains shown)
VH: QVQLQQWGAGLLKPSETLSLTCAVYGGSFSGYFWSWIRQPPGKGLEWIGEINHSGSTNYNPSLKSRVTLSVDTSKNQFSLKLSSVTAADTAVYYCAREGDSSSWGNWFDPWGQGTLVTVSS
VL: EIVLTQSPGTLSLSPGERATLSCRASQSVSSSYLAWYQQKPGQAPRFLIYGASSRATGIPDRFSGSGSGTDFTLTISRLEPEDFAVYYCQQFGNSPLTFGGGTKVEIK

Sequence of human SIGLEC9 on CHO-S-hSIGLEC9 cells (Q9Y336 18-348): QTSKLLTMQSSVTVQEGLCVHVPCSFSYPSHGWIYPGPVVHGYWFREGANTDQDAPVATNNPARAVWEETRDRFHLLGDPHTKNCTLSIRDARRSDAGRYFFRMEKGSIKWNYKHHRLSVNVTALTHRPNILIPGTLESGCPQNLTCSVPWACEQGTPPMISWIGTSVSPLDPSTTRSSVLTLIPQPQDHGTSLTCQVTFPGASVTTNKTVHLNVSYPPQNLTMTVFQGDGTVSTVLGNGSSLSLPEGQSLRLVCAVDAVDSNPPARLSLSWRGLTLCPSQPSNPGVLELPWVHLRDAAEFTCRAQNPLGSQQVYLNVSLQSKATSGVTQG
Sequence of human SIGLEC1 on CHO-S-hSIGLEC1 cells (Q9BZZ2 20-1641): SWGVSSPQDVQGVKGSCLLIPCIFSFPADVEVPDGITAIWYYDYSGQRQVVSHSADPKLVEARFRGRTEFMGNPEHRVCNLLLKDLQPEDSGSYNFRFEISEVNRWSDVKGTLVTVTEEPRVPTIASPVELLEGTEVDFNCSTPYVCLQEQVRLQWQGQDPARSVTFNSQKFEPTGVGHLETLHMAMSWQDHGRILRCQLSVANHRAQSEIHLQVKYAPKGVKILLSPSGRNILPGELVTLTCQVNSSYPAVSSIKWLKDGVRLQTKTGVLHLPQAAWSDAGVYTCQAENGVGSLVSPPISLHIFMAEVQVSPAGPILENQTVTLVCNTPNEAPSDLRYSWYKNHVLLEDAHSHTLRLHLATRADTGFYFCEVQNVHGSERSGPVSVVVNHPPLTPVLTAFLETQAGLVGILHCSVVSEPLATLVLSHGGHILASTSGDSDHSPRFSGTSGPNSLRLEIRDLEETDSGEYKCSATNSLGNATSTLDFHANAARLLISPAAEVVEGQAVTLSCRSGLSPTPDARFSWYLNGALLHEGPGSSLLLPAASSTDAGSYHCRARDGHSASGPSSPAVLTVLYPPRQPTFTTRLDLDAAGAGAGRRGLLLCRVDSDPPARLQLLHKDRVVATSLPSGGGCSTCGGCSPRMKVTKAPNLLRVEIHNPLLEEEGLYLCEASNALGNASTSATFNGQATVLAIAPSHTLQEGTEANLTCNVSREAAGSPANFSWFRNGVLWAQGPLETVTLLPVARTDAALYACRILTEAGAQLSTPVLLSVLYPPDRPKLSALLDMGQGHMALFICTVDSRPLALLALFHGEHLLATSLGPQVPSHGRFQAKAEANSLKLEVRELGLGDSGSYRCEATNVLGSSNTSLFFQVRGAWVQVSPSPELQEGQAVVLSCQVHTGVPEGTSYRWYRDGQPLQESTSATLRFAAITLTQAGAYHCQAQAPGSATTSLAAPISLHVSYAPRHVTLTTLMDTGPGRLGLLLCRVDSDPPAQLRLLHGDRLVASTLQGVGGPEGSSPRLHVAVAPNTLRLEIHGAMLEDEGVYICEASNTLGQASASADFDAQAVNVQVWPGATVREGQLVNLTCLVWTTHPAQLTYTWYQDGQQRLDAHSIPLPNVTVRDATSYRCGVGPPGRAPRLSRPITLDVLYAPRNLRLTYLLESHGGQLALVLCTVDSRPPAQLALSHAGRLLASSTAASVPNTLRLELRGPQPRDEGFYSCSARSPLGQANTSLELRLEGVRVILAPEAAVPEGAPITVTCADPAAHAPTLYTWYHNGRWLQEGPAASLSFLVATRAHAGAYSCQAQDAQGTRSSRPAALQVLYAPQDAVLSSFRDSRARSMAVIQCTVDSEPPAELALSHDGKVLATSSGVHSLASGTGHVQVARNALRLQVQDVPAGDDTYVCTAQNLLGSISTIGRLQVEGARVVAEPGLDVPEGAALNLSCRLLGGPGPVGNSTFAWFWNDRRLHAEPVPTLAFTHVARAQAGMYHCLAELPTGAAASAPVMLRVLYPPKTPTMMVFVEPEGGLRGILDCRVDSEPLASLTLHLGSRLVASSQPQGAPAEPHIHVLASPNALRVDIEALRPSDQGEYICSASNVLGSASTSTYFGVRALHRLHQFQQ

For one assay, the target named is human SIGLEC8 on CHO-S-hSIGLEC8 cells (human, UniProt Q9NYZ4 17-363). Briefly: flow cytometry, CHO-S cells expressing the target. On Percentage of Positive Cells: test concentration or dose not given here. The method, then: (§1) CHO-S-hSIGLEC15 cells, CHO-S-mSIGLEC15 cells, CHO-S-fasSIGLEC15 cells or CHO-S-dSIGLEC15 cells were transferred to a 96-well plate at a density of 5×10⁴ cells/well respectively. Serially diluted sample anti-SIGLEC15 antibodies were added to the 96-well plate, and incubated at 4° C. for 30 min. Then, the cells were incubated with the secondary antibody anti-hIgG-Fc-Alex Flour 647 (RL1-H) (Jackson ImmunoResearch Laboratories, Inc., 109-606-170) at 4° C. in the dark for 15 minutes before flow cytometry analysis.
Sequence of human SIGLEC8 on CHO-S-hSIGLEC8 cells (Q9NYZ4 17-363): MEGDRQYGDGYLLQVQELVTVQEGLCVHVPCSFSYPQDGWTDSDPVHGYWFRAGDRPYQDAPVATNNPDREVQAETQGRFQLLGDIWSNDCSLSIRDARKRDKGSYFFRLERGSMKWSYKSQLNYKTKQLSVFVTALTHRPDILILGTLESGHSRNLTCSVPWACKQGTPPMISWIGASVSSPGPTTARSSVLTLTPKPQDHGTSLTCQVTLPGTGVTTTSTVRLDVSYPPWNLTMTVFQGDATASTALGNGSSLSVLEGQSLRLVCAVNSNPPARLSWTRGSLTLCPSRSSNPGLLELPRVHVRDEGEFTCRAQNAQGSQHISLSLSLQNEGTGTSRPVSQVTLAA
(§2) Another similar experiment was performed to determine whether the anti-SIGLEC15 antibodies can bind with other SIGLEC family proteins. CHO-S-hSIGLEC1 cells (expressing hSIGLEC1, SEQ ID NO: 49)), CHO-S-hSIGLEC2 cells (expressing hSIGLEC2, SEQ ID NO: 50), CHO-S-hSIGLEC4 cells (expressing hSIGLEC4, SEQ ID NO: 51), CHO-S-hSIGLEC5 cells (expressing hSIGLEC5, SEQ ID NO: 52), CHO-S-hSIGLEC6 cells (expressing hSIGLEC6, SEQ ID NO: 53), CHO-S-hSIGLEC7 cells (expressing hSIGLEC7, SEQ ID NO: 54), CHO-S-hSIGLEC8 cells (expressing hSIGLEC8, SEQ ID NO: 55), CHO-S-hSIGLEC9 cells (expressing hSIGLEC9, SEQ ID NO: 56), CHO-S-hSIGLEC10 cells (expressing hSIGLEC10, SEQ ID NO: 57), CHO-S-hSIGLEC11 cells (expressing hSIGLEC11, SEQ ID NO: 58), CHO-S-hSIGLEC12 cells (expressing hSIGLEC12, SEQ ID NO: 59), CHO-S-hSIGLEC14 cells (expressing hSIGLEC14, SEQ ID NO: 60) or CHO-S-hSIGLEC16 cells (expressing hSIGLEC16, SEQ ID NO: 61) were used.
(A flow cytometer gives signals particle by particle.)
Take B1: the “Percentage of Positive Cells” value stood at 0.3% and the binding result is given as “no binding”.
In the case of B2, the “Percentage of Positive Cells” value turned out to be 0.1% and the binding result was “no binding”.
With B3, the “Percentage of Positive Cells” value worked out at 0.6% and the binding result was “no binding”.

In a further assay the target is human SIGLEC7 on CHO-S-hSIGLEC7 cells (human, UniProt Q9Y286 19-353). Briefly: flow cytometry, CHO-S cells expressing the target. On Percentage of Positive Cells: test concentration or dose not given here. The method, then: as §1, §2
Sequence of human SIGLEC7 on CHO-S-hSIGLEC7 cells (Q9Y286 19-353): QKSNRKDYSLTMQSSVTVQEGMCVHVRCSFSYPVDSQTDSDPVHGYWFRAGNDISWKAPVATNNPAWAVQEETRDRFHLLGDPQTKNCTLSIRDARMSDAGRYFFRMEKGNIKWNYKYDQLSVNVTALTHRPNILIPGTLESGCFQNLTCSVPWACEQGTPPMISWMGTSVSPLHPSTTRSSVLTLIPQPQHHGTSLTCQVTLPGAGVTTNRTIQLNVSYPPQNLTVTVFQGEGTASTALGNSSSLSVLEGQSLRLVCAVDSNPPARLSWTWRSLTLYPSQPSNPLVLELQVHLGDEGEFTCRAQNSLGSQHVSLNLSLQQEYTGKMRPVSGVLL
Regarding B1, the “Percentage of Positive Cells” value came out at 0.4% and the binding result is “no binding”.
On to B2, for which the “Percentage of Positive Cells” value turned out to be 0.2% and the binding result was “no binding”.
The like results for B3 were, in that order, 1% and “no binding”.

Another assay has as its target T1, human SIGLEC14 on CHO-S-hSIGLEC14 cells (human, UniProt Q08ET2 17-358).
T1 sequence: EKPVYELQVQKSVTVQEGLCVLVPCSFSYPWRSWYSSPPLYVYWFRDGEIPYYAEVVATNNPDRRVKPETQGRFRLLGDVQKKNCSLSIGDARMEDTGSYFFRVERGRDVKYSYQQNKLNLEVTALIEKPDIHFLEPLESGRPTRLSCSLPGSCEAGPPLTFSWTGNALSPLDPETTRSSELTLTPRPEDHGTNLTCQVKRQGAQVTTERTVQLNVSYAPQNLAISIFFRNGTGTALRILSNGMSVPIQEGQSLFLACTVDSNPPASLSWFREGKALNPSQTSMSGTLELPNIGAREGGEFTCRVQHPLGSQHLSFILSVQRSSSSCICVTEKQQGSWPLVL
The experiment in a line: flow cytometry, CHO-S cells expressing the target. On Percentage of Positive Cells: test concentration or dose not given here. The method, then: as §1, §2
With B1, the “Percentage of Positive Cells” value is 0.2% and the binding result is “no binding”.
On the same counts, the results for B2 are 0.1% and “no binding”.
Turning to B3, the “Percentage of Positive Cells” value came out at 1.3% and the binding result is listed as “no binding”.

For a further assay, the target named is T2, human SIGLEC5 on CHO-S-hSIGLEC5 cells (human, UniProt O15389 17-441).
T2 sequence: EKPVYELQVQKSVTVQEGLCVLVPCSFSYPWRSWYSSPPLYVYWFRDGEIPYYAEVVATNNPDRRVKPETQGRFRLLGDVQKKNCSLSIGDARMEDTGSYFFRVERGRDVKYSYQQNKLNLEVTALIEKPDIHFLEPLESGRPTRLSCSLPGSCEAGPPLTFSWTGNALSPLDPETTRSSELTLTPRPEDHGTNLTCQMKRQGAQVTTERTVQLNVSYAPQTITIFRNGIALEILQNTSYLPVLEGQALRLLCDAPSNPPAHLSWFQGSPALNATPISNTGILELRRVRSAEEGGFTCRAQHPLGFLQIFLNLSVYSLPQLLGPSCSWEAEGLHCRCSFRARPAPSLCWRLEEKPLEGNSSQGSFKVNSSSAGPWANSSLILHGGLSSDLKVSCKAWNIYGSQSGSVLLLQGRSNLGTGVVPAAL
The experiment in a line: flow cytometry, CHO-S cells expressing the target. On Percentage of Positive Cells: test concentration or dose not given here. The method, then:
as §1, §2
For B1, the “Percentage of Positive Cells” value was determined as 0.2% and the binding result is listed as “no binding”.
Regarding B2, the “Percentage of Positive Cells” value was 0.2% and the binding result is “no binding”.
On to B3, for which the “Percentage of Positive Cells” value came out at 7% and the binding result is listed as “no binding”.

A further assay concerns the target T3, human SIGLEC2 on CHO-S-hSIGLEC2 cells (human, UniProt P20273 20-687).
T3 sequence: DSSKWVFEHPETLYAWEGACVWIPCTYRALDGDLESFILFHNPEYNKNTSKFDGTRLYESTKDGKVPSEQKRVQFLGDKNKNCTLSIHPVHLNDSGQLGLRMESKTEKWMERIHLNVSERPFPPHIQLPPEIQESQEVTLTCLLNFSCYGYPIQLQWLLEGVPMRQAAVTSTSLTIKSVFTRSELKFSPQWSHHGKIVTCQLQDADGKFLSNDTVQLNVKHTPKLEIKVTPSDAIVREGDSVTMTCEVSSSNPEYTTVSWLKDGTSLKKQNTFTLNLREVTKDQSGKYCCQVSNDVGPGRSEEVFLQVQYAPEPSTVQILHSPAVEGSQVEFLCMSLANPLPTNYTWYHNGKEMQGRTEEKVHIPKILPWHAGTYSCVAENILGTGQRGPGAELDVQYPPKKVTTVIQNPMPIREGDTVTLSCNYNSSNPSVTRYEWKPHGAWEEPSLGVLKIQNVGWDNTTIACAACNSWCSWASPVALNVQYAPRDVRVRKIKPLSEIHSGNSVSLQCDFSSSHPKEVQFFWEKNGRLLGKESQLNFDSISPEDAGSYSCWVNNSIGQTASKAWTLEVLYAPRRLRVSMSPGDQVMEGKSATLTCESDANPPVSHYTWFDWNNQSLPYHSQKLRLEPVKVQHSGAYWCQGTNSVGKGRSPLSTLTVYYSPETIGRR
The experiment in a line: flow cytometry, CHO-S cells expressing the target. On Percentage of Positive Cells: test concentration or dose not given here. The method, then:
as §1, §2
As to B1, the “Percentage of Positive Cells” value came out at 0.3% and the binding result is “no binding”.
Take B2: the “Percentage of Positive Cells” value amounted to 0% and the binding result is “no binding”.
On the same counts, the results for B3 are 1.8% and “no binding”.

In another assay the target is human SIGLEC12 on CHO-S-hSIGLEC12 cells (human, UniProt Q96PQ1 19-481). Briefly: flow cytometry, CHO-S cells expressing the target. On Percentage of Positive Cells: test concentration or dose not given here. The method, then: as §1, §2
Sequence of human SIGLEC12 on CHO-S-hSIGLEC12 cells (Q96PQ1 19-481): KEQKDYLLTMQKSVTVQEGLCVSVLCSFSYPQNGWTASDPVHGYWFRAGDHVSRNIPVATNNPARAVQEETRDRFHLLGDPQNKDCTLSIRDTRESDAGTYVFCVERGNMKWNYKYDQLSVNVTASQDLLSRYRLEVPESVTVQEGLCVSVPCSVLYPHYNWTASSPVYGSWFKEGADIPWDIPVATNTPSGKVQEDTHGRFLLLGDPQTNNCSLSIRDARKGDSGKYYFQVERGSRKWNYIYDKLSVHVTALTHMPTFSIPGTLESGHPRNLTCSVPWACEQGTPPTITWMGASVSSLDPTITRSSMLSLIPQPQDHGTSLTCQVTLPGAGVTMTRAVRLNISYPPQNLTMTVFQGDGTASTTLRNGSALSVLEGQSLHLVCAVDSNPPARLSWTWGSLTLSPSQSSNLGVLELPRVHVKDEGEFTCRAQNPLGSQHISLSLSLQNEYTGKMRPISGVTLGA
As to B1, the “Percentage of Positive Cells” value amounted to 0.1% and the binding result is “no binding”.
Regarding B2, the “Percentage of Positive Cells” value worked out at 0% and the binding result is recorded as “no binding”.
With B3, the “Percentage of Positive Cells” value was 0.4% and the binding result was “no binding”.

The target in another assay is human SIGLEC9 on CHO-S-hSIGLEC9 cells (human, UniProt Q9Y336 18-348). Briefly: flow cytometry, CHO-S cells expressing the target. Here is the method:
as §1, §2
Consider B1, for which the “Percentage of Positive Cells” value stood at 0.1% and the binding result is recorded as “no binding”.
B2: the “Percentage of Positive Cells” value is 0.3% and the binding result is reported as “no binding”.
As for B3, the “Percentage of Positive Cells” value amounted to 0.7% and the binding result was “no binding”.

The next assay has as its target human SIGLEC1 on CHO-S-hSIGLEC1 cells (human, UniProt Q9BZZ2 20-1641). Briefly: flow cytometry, CHO-S cells expressing the target. Here is the method: as §1, §2
With B1, the “Percentage of Positive Cells” value stood at 0.1% and the binding result is given as “no binding”.
Take B2: the “Percentage of Positive Cells” value was determined as 0% and the binding result is “no binding”.
With B3, the “Percentage of Positive Cells” value turned out to be 1.1% and the binding result is “no binding”.
